Biological target: T1, VDAC1 on the surface of human umbilical vein endothelial cells (HUVEC) (human, UniProt P21796 2-283)
T1 construct: Endogenous protein on primary HUVEC; The assays were done on whole cells; also called K5 receptor on HUVEC; plasma membrane VDAC1
Experiment: 125I-K5 saturation binding to HUVEC monolayers at 4 C, fit to the Langmuir isotherm
Method: Ligand binding analysis. Cells were grown in tissue culture plates until the monolayers were confluent. The cells were washed in HBSS. […] Wells were stripped from the plates and radioactivity was determined. Molecules of ligand bound were calculated after substraction of nonspecific binding measured in the presence of 50 mM p-amino-benzamidine.

T1 sequence (P21796 2-283): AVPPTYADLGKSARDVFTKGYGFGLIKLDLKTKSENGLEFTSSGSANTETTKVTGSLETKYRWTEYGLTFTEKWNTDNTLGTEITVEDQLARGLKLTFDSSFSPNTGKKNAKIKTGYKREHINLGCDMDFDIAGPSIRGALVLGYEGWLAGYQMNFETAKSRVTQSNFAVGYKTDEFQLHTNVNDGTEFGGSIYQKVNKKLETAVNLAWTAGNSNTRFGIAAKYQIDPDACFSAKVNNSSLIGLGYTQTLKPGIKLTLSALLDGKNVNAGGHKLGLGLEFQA

B1: plasminogen kringle 5 (K5), purified from pepsin digestion of human mini-Pg (ligand, UniProt P00747 481-560, looked up)
chain: CMFGNGKGYRGKRATTVTGTPCQDWAAQEPHRHSIFTPETNPRAGLEKNYCRNPDGDVGGPWCYTTNPRKLYDYCDVPQC
modifications: 125I-labeled Bolton Hunter reagent (labelled form used in the binding assays)
notes: domain: kringle 5; Proteolytic fragment (elastase, then pepsin) of purified human Pg 2; also called Pg kringle 5; angiostatin kringle-5
Which Kd does the source give for B1 here?
Its Kd is 28 nM.

Reference: US20040096444A1 (DUKE UNIVERSITY, published 2004)
